The results in this text go back to patent US6395479B1, “Androgen-metabolic gene mutations and prostate cancer risk” (University of Southern California, priority 1998, dated 2002).

Residue numbers refer to the chain shown, from its start. Names may count otherwise.

The subject of data set [1] is SRD5A2 (steroid 5α-reductase type II). The data set is described as follows: SRD5A2 activity in extracts of transfected cos cells: conversion of [14C] testosterone to [14C] dihydrotestosterone with NADPH. It is filed as biochemical, human. Particulars: for Vmax for testosterone to dihydrotestosterone conversion: normalized protein extracts of transfected cos cells, 37° C., cofactor NADPH.

Data set [2] deals with T1, SRD5A2 (steroid 5α-reductase type II) (Homo sapiens, UniProt P31213, A49T/L89V).
T1 construct: expressed in transfected cells; host or cells: cos cells (electroporated; sonicated cell extracts)
T1 sequence (P31213 1-254 A49T/L89V): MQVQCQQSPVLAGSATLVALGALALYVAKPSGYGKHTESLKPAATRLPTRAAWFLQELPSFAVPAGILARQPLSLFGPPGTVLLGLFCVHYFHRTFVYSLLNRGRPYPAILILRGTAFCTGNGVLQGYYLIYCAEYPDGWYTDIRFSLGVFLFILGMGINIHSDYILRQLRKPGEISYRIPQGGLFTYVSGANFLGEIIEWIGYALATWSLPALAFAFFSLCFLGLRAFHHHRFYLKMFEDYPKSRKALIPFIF
The data set is described as above. It is filed as biochemical. Particulars: substrate testosterone.

B1: normal enzyme: normal (wild type) steroid 5α-reductase type II from the SRD5A2 construct expressed in cos cells (protein, UniProt P31213 1-254, looked up)
3-oxo-5-alpha-steroid …: T1 sequence (P31213 1-254 A49T/L89V) with T49A, V89L
Consider B1, for which, in data set [1], the “Vmax for testosterone to dihydrotestosterone conversion” value came out at 1.3 nmol/min/mg and the “testosterone concentration at which the enzyme is substrate inhibited” value was determined as 1.5 µM.

B2: A49T enzyme: steroid 5α-reductase type II encoded by SRD5A2 cDNA with the A49T missense mutation, expressed in cos cells (protein, UniProt P31213 1-254, looked up, variant A49T)
3-oxo-5-alpha-steroid …: T1 sequence (P31213 1-254 A49T/L89V) with V89L
As for B2, in data set [1], the “Vmax for testosterone to dihydrotestosterone conversion” value was 3.8 nmol/min/mg and the “testosterone concentration at which the enzyme is substrate inhibited” value was determined as 6 µM. For the same molecule, the “apparent KM for testosterone compared to the normal enzyme” value in data set [2] is “higher KM for testosterone”.
